T1: rat GALR3 receptor (rat, UniProt O88626 1-370)
T1 construct: also called rGALR3; rGalR3
T1 sequence: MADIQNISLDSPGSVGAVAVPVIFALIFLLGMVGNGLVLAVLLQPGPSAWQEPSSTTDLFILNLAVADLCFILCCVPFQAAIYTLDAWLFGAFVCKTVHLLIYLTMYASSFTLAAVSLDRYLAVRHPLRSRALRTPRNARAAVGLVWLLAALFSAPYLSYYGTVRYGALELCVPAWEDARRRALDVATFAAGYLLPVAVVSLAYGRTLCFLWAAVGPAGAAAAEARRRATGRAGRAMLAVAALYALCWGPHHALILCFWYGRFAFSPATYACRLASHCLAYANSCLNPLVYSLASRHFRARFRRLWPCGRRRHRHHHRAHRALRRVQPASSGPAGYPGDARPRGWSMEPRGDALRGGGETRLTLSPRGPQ

B1: (-)9 to (+)29 galanin, porcine (peptide, UniProt P07480 24-61, looked up)
peptide: LGSPVKEKRGWTLNSAGYLLGPHAIDNHRSFHDKYGLA
notes: range -9 to +29; also called galanin -9 to +29

Assays:
rat GALR1 receptor (rat) = rat GALR1 receptor (rat) (UniProt Q62805); assay: cell-based or functional assay
rat GALR2 receptor (rat) = rat GALR2 receptor (rat) (UniProt O08726); assay: cell-based or functional assay
[1] = biological target: human GALR3 receptor (human) (UniProt O60755); assay: cell-based or functional assay
rat GALR3 receptor = biological target: T1, rat GALR3 receptor; assay: porcine 125I-galanin competition binding, 293 #105

Chain of rat GALR1 receptor (rat) (Q62805 whole entry): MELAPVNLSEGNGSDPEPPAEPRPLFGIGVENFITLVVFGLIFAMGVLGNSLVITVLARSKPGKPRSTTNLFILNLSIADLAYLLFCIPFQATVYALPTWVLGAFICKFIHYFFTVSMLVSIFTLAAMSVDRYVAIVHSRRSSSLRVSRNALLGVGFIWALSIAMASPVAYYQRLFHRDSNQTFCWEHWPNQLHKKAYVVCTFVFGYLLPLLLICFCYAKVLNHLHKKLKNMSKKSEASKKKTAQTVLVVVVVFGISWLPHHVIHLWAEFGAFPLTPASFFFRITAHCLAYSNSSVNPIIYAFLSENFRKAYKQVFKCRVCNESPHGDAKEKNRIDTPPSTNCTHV
Chain of human GALR3 receptor (human) (O60755 whole entry): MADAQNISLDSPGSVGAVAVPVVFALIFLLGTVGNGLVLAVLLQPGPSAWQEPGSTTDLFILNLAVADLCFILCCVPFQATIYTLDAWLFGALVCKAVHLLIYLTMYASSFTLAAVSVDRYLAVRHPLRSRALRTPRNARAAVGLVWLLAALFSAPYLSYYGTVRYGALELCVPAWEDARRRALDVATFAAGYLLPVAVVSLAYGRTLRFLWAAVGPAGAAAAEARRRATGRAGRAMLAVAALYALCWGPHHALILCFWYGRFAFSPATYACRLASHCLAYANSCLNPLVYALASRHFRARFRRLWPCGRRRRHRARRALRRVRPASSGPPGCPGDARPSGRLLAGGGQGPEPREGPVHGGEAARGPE
Chain of rat GALR2 receptor (rat) (O08726 whole entry): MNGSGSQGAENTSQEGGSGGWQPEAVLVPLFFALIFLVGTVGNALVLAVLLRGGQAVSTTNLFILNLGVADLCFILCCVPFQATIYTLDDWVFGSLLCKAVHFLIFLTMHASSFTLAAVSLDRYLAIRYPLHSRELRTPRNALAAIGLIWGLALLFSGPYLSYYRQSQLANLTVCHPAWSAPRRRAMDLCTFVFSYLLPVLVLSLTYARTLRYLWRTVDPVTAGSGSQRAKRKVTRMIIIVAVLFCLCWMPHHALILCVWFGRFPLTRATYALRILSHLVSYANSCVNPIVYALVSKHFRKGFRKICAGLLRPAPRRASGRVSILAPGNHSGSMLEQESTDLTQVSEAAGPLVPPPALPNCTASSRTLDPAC

Molecule | EC50, cAMP, LM(tk-) (rat GALR1 receptor (rat)) | EC50, AA (arachidonic acid release), CHO #79 (rat GALR2 receptor (rat)) | Oocyte EC50 for stimulation of GIRKs [1] | Ki (rat GALR3 receptor)
C7 (peptide) | 0.52 nM | 2.41 nM | 343 nM | –
B1 | – | – | – | 4.17 nM

— patent publication US20030119096A1 (published 2003)
